These results are taken from US7022496.

For this assay, the target named is catalytic subunit of the cellular DNA-dependent protein kinase (human) (UniProt P78527). In words: cell-based or functional assay.
UniProt P78527, sequence (P78527 whole entry): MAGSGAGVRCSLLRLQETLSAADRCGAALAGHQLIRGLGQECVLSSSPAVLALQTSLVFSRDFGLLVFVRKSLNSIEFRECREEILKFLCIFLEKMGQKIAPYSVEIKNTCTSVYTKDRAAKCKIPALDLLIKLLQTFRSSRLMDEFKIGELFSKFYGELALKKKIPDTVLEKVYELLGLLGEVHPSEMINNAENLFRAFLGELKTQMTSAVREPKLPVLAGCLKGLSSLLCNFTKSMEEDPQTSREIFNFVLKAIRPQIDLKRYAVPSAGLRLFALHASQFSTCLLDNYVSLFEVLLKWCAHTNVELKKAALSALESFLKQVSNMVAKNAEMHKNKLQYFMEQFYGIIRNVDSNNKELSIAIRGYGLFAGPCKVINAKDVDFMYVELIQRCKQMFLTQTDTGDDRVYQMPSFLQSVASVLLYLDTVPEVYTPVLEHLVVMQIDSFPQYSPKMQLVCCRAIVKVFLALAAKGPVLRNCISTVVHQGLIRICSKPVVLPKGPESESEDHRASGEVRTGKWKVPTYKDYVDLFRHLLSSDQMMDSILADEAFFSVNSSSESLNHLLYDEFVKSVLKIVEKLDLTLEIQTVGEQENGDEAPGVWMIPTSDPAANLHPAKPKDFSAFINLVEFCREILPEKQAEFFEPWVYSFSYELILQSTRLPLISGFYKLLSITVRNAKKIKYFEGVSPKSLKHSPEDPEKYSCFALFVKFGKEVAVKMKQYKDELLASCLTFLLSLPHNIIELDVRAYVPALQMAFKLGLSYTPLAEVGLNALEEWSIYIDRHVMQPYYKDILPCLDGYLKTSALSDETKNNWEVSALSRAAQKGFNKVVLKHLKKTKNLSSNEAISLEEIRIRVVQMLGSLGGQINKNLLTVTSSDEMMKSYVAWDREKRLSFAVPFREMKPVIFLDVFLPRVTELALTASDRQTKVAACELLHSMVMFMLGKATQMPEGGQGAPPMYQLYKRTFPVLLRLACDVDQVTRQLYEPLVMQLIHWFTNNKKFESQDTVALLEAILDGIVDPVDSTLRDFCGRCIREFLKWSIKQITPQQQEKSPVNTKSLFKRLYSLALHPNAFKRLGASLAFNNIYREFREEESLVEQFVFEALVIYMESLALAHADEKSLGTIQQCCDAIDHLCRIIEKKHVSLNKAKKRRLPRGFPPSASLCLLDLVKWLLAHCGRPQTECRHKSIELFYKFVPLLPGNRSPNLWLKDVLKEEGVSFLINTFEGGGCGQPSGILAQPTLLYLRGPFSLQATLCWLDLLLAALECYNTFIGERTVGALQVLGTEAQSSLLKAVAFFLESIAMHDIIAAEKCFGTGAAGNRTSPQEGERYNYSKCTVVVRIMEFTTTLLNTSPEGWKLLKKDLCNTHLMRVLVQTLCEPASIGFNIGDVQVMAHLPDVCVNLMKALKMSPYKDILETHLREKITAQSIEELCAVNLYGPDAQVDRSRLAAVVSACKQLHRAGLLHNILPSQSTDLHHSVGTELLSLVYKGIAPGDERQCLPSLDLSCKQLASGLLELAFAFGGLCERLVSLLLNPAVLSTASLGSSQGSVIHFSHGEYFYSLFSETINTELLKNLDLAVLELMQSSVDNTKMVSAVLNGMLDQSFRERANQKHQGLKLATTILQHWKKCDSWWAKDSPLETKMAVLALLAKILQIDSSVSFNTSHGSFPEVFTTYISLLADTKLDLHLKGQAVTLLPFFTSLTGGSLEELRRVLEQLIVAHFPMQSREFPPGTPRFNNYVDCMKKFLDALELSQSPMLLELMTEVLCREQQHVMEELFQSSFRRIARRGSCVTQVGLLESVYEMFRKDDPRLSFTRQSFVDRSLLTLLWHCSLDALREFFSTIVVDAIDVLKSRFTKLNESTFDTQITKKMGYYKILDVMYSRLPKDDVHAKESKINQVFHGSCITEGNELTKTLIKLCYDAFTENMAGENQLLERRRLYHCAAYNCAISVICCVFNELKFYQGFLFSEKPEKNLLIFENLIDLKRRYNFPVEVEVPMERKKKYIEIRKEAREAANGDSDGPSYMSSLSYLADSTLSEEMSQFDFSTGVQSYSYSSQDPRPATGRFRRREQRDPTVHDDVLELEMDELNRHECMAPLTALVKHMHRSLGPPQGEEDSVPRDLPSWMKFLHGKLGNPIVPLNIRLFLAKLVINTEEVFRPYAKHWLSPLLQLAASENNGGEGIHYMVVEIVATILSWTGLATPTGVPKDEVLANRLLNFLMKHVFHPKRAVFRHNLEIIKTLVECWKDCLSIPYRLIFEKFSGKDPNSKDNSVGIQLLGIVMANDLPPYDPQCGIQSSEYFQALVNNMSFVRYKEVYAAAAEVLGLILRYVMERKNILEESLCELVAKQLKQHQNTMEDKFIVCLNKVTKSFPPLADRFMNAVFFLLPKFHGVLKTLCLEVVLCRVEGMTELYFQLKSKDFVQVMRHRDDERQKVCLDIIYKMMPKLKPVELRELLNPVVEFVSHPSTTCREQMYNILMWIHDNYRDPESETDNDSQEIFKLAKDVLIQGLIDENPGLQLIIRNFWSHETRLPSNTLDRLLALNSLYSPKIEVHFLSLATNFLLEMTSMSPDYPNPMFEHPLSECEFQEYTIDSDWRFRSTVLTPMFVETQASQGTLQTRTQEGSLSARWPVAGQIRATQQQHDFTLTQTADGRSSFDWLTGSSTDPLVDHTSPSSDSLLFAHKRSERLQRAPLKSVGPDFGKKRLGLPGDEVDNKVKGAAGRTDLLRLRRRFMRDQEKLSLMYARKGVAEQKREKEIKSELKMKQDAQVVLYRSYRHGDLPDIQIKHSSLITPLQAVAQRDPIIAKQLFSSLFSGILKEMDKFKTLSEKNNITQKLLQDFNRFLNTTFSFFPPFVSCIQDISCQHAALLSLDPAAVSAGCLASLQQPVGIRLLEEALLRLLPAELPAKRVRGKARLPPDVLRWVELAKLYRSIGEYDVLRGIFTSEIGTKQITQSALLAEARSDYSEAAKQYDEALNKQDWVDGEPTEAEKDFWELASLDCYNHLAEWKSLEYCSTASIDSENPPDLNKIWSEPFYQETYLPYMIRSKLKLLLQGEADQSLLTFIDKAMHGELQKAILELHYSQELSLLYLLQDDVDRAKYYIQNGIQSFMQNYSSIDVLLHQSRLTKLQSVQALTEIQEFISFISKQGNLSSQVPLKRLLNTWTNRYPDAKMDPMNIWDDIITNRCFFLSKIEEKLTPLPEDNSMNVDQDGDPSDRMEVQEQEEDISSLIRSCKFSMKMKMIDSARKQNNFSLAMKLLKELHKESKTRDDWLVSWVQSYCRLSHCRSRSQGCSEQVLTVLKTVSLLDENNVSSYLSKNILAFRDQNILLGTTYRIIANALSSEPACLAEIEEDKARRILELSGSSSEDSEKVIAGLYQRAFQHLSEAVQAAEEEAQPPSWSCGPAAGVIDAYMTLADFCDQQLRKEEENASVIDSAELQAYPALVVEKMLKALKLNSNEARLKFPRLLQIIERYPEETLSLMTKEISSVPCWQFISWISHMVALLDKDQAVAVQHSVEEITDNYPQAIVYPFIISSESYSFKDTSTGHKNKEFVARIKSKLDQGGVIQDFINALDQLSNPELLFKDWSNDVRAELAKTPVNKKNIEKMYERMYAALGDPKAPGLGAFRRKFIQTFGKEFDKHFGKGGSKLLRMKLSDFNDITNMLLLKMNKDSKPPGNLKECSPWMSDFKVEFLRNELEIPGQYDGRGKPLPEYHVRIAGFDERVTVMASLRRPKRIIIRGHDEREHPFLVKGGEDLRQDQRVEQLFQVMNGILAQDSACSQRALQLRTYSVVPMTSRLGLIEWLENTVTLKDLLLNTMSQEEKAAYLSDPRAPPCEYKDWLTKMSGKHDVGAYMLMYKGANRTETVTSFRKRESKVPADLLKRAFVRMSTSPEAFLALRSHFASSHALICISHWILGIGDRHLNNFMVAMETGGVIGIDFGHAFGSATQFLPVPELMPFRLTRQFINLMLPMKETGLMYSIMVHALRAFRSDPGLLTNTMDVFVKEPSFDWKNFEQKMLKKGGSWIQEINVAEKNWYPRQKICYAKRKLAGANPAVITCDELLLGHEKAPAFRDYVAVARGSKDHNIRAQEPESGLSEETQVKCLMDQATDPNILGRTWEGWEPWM

adenovirus E4 34k protein (product of early region 4 ORF6), expressed from plasmid OE6.5 as a fusion with a c-myc epitope, sequence (P03239 whole entry, the tested form may be a part): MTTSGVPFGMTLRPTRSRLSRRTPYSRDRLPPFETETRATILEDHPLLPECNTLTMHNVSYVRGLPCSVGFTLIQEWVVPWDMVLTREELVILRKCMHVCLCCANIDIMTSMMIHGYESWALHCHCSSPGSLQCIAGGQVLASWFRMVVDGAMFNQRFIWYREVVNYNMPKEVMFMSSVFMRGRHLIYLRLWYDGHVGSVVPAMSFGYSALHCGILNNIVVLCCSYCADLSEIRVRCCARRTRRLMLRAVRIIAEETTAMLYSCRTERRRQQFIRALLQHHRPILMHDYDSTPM

Take “adenovirus E4 34k protein (product of early region 4 ORF6), expressed from plasmid OE6.5 as a fusion with a c-myc epitope”: the V(D)J recombination frequency (recombinant formation of substrate plasmid pJH200 in transfected 293 cells) worked out at 5 fold.
